Results published in IntAct's records for PubMed 11163258.

B1: Platelet-activating factor acetylhydrolase IB subunit beta (Homo sapiens), P43034 (parent)
chain: MVLSQRQRDELNRAIADYLRSNGYEEAYSVFKKEAELDVNEELDKKYAGLLEKKWTSVIRLQKKVMELESKLNEAKEEFTSGGPLGQKRDPKEWIPRPPEKYALSGHRSPVTRVIFHPVFSVMVSASEDATIKVWDYETGDFERTLKGHTDSVQDISFDHSGKLLASCSADMTIKLWDFQGFECIRTMHGHDHNVSSVAIMPNGDHIVSASRDKTIKMWEVQTGYCVKTFTGHREWVRMVRPNQDGTLIASCSNDQTVRVWVVATKECKAELREHEHVVECISWAPESSYSSISEATGSETKKSGKPGPFLLSGSRDKTIKMWDVSTGMCLMTLVGHDNWVRGVLFHSGGKFILSCADDKTLRVWDYKNKRCMKTLNAHEHFVTSLDFHKTAPYVVTGSVDQTVKVWECR
partner: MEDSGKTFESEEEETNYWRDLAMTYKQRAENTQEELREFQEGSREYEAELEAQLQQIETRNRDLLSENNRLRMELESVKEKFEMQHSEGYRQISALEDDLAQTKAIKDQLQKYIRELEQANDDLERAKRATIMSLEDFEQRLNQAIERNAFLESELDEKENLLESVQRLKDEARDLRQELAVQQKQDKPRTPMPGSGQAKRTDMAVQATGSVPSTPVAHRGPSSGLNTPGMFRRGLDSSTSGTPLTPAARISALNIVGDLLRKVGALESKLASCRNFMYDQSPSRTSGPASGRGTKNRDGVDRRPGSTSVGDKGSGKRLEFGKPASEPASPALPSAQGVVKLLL

Variants of: B1
Conditions: with nde1_mouse Nde1, Q9CZA6

effect of a mutation on the interaction | Variant
decreasing interaction | S169P
decreasing interaction | H149R
